Test results reported in doi:10.1101/2021.05.01.442081.

Molecular target: T1, GST-FOXD3 (Mus musculus, UniProt Q61060 1-465)
T1 sequence: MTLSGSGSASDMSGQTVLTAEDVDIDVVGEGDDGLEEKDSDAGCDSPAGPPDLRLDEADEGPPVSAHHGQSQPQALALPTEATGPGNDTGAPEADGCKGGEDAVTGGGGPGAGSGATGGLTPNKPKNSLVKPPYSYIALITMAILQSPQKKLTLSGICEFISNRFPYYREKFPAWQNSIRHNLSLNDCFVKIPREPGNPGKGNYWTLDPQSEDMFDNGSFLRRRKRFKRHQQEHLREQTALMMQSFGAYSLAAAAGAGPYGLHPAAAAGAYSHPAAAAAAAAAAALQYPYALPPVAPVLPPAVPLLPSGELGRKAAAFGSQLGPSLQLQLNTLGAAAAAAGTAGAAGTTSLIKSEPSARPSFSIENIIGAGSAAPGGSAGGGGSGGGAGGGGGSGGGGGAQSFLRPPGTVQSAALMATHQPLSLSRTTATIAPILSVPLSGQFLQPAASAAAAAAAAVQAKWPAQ
Assay: EMSA

B1: MERVL-LTR (dsDNA)
DNA 1: AGACTCAAAGCAAAACAGGCTCCTAGAGGGGAGGT
DNA 2: ACCTCCCCTCTAGGAGCCTGTTTTGCTTTGAGTCT
- binding result: binds
